What all share (assay): SPR
On the technique in general: Surface plasmon resonance follows binding to a sensor surface in real time, without labels.

Assay [1] concerns the target Fc-tagged sFRP2 Fzl domain (mouse).
The target of assay [2] is T1, FLAG-tagged BMP1 (human, UniProt P13497-2 23-730).
T1 sequence (looked up): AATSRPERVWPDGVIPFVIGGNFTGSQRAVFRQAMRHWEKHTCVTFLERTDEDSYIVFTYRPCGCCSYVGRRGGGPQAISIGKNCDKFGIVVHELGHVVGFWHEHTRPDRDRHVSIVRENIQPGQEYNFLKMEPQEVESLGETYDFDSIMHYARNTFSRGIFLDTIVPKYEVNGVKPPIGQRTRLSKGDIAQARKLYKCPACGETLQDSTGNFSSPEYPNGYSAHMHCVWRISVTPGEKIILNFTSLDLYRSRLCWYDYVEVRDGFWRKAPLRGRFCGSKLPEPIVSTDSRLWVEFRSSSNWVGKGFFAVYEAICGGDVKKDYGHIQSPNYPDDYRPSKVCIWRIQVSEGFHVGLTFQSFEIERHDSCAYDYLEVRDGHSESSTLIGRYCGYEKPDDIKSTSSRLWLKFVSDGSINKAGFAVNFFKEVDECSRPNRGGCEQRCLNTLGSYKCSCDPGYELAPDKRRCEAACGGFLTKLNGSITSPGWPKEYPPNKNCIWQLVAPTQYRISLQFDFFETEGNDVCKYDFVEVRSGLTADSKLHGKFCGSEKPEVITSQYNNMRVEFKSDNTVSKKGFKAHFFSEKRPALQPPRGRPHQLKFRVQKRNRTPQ

In assay [3] the target is T1, FLAG-tagged BMP1. This is another data set of the same source.

Like-named read-outs stand apart in the source and are kept apart here.

On to “FLAG-tagged BMP1 (from UniProt P13497-2 23-730) (enzyme)”, for which, in assay [1], the Kd (as a rule, the free concentration of one partner at which half of the binding sites on the other are occupied at equilibrium, for simple one-to-one binding) was found to be 8.68 nM.

B1: His-tagged sFRP2 (natural protein, mouse, UniProt P97299 25-295, looked up)
chain: LFLFGQPDFSYKRSNCKPIPANLQLCHGIEYQNMRLPNLLGHETMKEVLEQAGAWIPLVMKQCHPDTKKFLCSLFAPVCLDDLDETIQPCHSLCVQVKDRCAPVMSAFGFPWPDMLECDRFPQDNDLCIPLASSDHLLPATEEAPKVCEACKTKNEDDNDIMETLCKNDFALKIKVKEITYINRDTKIILETKSKTIYKLNGVSERDLKKSVLWLKDSLQCTCEEMNDINAPYLVMGQKQGGELVITSVKRWQKGQREFKRISRSIRKLQC
Regarding B1, in assay [2], the Kd worked out at 7.13 nM.

B2: full-length sFRP2-Fc (Fc fusion, mouse, UniProt P97299 25-295, looked up)
chain: LFLFGQPDFSYKRSNCKPIPANLQLCHGIEYQNMRLPNLLGHETMKEVLEQAGAWIPLVMKQCHPDTKKFLCSLFAPVCLDDLDETIQPCHSLCVQVKDRCAPVMSAFGFPWPDMLECDRFPQDNDLCIPLASSDHLLPATEEAPKVCEACKTKNEDDNDIMETLCKNDFALKIKVKEITYINRDTKIILETKSKTIYKLNGVSERDLKKSVLWLKDSLQCTCEEMNDINAPYLVMGQKQGGELVITSVKRWQKGQREFKRISRSIRKLQC
Regarding B2, the Kd in assay [3] is approximately 6.01 nM.

Source of the values: PMC2722759 (Nature cell biology, 2008).
